Data taken from publication PMC7642358 (2020).

Tests used:
[1] = target: T1, SARS-CoV-2 spike receptor-binding domain (2019-nCoV RBD-SD1, residues 319–566) (SARS-CoV-2, UniProt P0DTC2 319-566, chemically biotinylated with NHS-PEG4-Biotin for selection, ELISA and BLI); assay: BLI
[2] = target: T1, SARS-CoV-2 spike receptor-binding …; assay: BLI; remark: listed apart in the source

B1: Sb23-Fc (Sb23 fused to the Fc domain from human IgG) (Fc fusion)
chain: QVQLVESGGGLVQAGGSLRLSCAASGFPVESENMHWYRQAPGKEREWVAAIYSTGGWTLYADSVKGRFTISRDNAKNTVYLQMNSLKPEDTAVYYCAVQVGYWYEGQGTQVTVS
How did the Kd [1] turn out when B1 was run?
The Kd was 0.225 nM.

And the koff [2]?
Its koff is 7.1e-05 s⁻¹.
